Target: T1, PfAgo binding-pocket mutant (UniProt Q8U3D2)
T1 sequence: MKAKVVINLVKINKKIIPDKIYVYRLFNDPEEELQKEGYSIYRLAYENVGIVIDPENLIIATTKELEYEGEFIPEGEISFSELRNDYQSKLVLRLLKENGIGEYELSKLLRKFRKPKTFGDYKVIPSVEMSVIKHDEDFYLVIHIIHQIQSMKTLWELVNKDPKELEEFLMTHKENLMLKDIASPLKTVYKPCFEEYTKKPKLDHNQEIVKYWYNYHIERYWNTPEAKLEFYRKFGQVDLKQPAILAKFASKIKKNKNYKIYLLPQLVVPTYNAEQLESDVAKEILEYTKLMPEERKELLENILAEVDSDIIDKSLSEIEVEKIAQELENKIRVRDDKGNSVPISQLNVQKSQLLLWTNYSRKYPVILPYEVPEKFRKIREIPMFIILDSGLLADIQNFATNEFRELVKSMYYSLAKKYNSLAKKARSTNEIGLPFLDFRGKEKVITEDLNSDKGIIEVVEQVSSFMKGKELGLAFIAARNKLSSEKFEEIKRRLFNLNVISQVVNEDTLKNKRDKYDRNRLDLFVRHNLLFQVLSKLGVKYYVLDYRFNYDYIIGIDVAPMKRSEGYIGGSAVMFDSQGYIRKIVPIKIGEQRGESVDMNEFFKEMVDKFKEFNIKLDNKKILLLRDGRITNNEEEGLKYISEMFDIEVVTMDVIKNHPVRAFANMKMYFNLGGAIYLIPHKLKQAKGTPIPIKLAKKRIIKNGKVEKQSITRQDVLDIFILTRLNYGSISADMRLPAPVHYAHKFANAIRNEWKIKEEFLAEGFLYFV
Experiment: fluorescence polarization

Sequence	binding signal (fold affinity gain)	binding signal (fold affinity gain (up to)) (5' phosphate)
ATATACTATACAACCTACTACCTCGTATAAATTTTTAAATAAATA [45nt DNA target]	3	–
TGACGTAGTAGGTTGT [guide_m4]	–	2
